Experimental findings from patent US20080305501A1 are described below.

For the test, the target named is chimeric receptor comprising mouse TNFR1 external domain (residues 1-210 of SEQ ID NO:1) linked to the transmembrane and intracellular domains of mouse RANK (residues 210-625 of SEQ ID NO:2) (mouse). Nature of the test: cell-based or functional assay.
chimeric receptor comprising mouse TNFR1 external domain (residues 1-210 of SEQ ID NO:1) linked to the transmembrane and intracellular domains of mouse RANK (residues 210-625 of SEQ ID NO:2) (mouse), sequence (chain, as listed by the source mutant): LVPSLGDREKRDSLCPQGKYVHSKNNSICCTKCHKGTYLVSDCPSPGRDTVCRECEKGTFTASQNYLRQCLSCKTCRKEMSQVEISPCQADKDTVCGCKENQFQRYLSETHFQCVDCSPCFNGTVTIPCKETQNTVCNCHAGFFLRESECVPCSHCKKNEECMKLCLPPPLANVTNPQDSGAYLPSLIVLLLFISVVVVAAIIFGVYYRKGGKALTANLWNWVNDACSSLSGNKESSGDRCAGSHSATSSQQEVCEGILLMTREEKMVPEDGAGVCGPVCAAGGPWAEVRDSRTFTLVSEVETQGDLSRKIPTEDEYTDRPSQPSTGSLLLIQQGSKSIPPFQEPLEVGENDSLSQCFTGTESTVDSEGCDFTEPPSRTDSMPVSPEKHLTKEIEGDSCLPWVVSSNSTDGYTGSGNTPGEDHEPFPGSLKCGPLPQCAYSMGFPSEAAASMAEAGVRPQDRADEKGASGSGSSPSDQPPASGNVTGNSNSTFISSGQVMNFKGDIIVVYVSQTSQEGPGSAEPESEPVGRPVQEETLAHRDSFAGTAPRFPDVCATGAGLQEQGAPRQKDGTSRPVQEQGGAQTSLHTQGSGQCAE

“Recombinant mouse TNFα (410-TRNC-050, R&D Systems) (from UniProt P06804 80-235) (ligand)” showed an osteoclast formation; lowest TNFα concentration still active of 1 ng/mL.
